Data published in paper PMC4656083 (Chemistry & biology, 2015).

T1: FabA, β-hydroxyacyl-AcpP dehydratase (wild type) (E. coli, UniProt P0A6Q3 2-172)
T1 sequence: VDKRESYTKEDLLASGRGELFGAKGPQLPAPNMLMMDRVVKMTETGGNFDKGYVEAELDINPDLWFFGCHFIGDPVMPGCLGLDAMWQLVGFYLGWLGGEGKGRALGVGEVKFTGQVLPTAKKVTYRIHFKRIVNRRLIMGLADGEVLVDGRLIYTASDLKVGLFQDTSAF

B1: AcpP (acyl carrier protein) loaded with crosslinking probe DH10 (natural protein, E. coli)
chain: STIEERVKKIIGEQLGVKQEEVTNNASFVEDLGADSLDTVELVMALEEEFDTEIPDEEAEKITTVQAAIDYINGHQA
modifications: S36 carries the phosphopantetheine analogue of probe DH10 (sulfonyl-3-alkyne warhead, mimics a C10 acyl chain)

How the values were obtained:
Assay in all cases: cross-linking
[1] = molecular target: AcpP (acyl carrier protein) loaded with crosslinking probe DH6 (E. coli) (UniProt P0A6A8)
[2] = molecular target: AcpP (acyl carrier protein) loaded with crosslinking probe DH10X (E. coli) (UniProt P0A6A8)
[3] = molecular target: AcpP (acyl carrier protein) loaded with crosslinking probe DH10 (E. coli) (UniProt P0A6A8)
[4] = molecular target: AcpP (acyl carrier protein) loaded with crosslinking probe DH8 (E. coli) (UniProt P0A6A8)
[5] = molecular target: T1, FabA, β-hydroxyacyl-AcpP dehydratase …

Molecule	crosslinking efficiency relative to WT FabA [1]	crosslinking efficiency relative to WT FabA [2]	crosslinking efficiency relative to WT FabA [3]	crosslinking efficiency relative to WT FabA [4]	also measured
FabA F92A (enzyme)	> 50%	> 50%	> 50%	> 50%	
FabA F165A (enzyme)					crosslinking efficiency relative to FabA WT [2]: 50%; crosslinking efficiency relative to FabA WT [3]: 50%
FabA F171A (enzyme)					crosslinking efficiency relative to FabA WT [2]: 50%; crosslinking efficiency relative to FabA WT [3]: 50%
FabA L94A (enzyme)	> 50%	> 50%	> 50%	> 50%	
FabA L164A (enzyme)	> 50%	> 50%	> 50%	> 50%	
FabA R137E (enzyme)					percent complex formation (crosslinking) [1]: < 50%; percent complex formation (crosslinking) [2]: < 50%; percent complex formation (crosslinking) [3]: < 50%; percent complex formation (crosslinking) [4]: < 50%
B1					binding result [5]: binds
